# T1: cynomolgus monkey CD27 expressed on cells (cynomolgus monkey T cells, transfected HEK293F cells) (cynomolgus monkey, UniProt P26842 20-260 (human entry))
# T1 construct: also called cyno CD27
# T1 chain: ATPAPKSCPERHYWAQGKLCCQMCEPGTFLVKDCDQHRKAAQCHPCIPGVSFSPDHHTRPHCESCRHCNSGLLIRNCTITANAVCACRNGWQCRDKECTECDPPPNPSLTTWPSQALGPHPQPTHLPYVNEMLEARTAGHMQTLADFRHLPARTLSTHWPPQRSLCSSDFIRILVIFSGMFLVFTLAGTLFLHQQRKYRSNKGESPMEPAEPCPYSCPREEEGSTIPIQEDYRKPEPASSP
# T2: human CD27 expressed on cells (T cells, transfected HEK293F cells, Daudi cells, NFκB-luc2/CD27 Jurkat … (human, UniProt P26842 20-240))
# T2 construct: also called TNFRSF7
# T2 sequence: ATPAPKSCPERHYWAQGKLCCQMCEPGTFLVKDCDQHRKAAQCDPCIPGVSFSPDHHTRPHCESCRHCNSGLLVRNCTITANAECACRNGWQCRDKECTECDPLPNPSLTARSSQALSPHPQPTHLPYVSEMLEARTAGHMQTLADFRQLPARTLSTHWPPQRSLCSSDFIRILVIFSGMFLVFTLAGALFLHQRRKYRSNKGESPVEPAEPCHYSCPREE
# B1: IgG1-b12-FEAR (antibody, V domains shown)
# VH: QVQLVQSGAEVKKPGASVKVSCQASGYRFSNFVIHWVRQAPGQRFEWMGWINPYNGNKEFSAKFQDRVTFTADTSANTAYMELRSLRSADTAVYYCARVGPYSWDDSPQDNYYMDVWGKGTTVIVSS
# VL: EIVLTQSPGTLSLSPGERATFSCRSSHSIRSRRVAWYQHKPGQAPRLVIHGVSNRASGISDRFSGSGSGTDFTLTITRVEPEDFALYYCQVYGASSYTFGQGTKLERK
# notes: also called ctrl; anti-HIV-gp120 antibody IgG1-b12-FEAR
# Key:
# [1] = molecular target: T1, cynomolgus monkey CD27 expressed on …; assay: flow cytometry on T cells in cynomolgus monkey PBMC, PE-labelled goat anti-human IgG, median MFI PE
# [2] = molecular target: T2, human CD27 expressed on cells (T cells, …); assay: flow cytometry on T cells in human PBMC, PE-labelled goat anti-human IgG, median MFI PE
binder,measurement,setting,value
B1,binding result,[1],no binding (tested: 10 µg/mL)
same,binding result,[2],no binding (tested: 10 µg/mL)
